From the DeepSol protein solubility set

Assay: soluble on expression in E. coli; label from the status in PepcDB or PDB records

Sequence | soluble on expression in E. coli
MGSDKIHHHHHHMNIKHLDVLRTLLATGSTIAAAKAMGLSQSGVSRMLQQLESDLAITLFARDKGRLIPTPEATVLGRDAQNVLLAIERMSGHAEDLRNGSAGPEIVRIGLPSSMWENFAPAMLIDYVRDFPGVRIETFFETTTAITKLVEERVIDLGFLRIEGETGPGIAIDKVASGESVCVVPKDHSLAELPEITVKHLRNVPLILIGRQRPNRMALDQAFQRAGVKQMVKIETHTNSSACSYVAHGLGVSIISSFYANLYRHLPVVYRPFVPRATQEFGLVRAAGVPLSIAAQALSDALKKQIRLSQEEQ | not soluble
SGGRHIQAIRCWTIWKYMKDYFPISLVKTAELDPSRNYIAGFHPHGVLAVGAFANLCTESTGFSSIFPGIRPHLMMLTLWFRAPFFRDYIMSAGLVTSEKESAAHILNRKGGGNLLGIIVGGAQEALDARPGSFTLLLRNRKGFVRLALTHGAPLVPIFSFGENDLFDQIPNSSGSWLRYIQNRLQKIMGISLPLFHGRGVFQYSFGLIPYRRPITTVVGKPIEVQKTLHPSEEEVNQLHQRYIKELCNLFEAHKLKFNIPADQHLEFC | soluble
MGSDKIHHHHHHMARLGVDFGTSNTAAGLVQAGHPRVLPLEPGAQTLPTAVFIDFAARRYVYGTDAARAMMDGQEGRFLRGLKSILGTPLAREPRMFLNERLTLIEVIARFLAEIRTRAERLSGERFDRALSGRPVHFHSASAERDAQACTDLHDAYLMAGFSEVCFLPEPEAAALAVAGQGRMLIVDIGGGTSDFTLCDRRGTTTRMLASRGLRIGGTDFDRVLSLDHAMPLLGYEAQIGAELGEASHSAPRALFHDLASWEKIAFVYDPATLREVRRWVRLAEQPRLFERLAEVLESHLGHDVAYAVEAGKIAANGAAAGRIALDIVERGLGADLGNAAMQAALAGFADEIATCAMQTVRDAGVGPDSVDQVVFVGGSSLMGVIRAALARVLPGAEQQDSEVFTAVVHGLALASEDQ | not soluble
MRPGGYPKGVQARAWVEVDLAALWANYRLLAGRAGGEVIPVLKADAYGHGALPLARFLEGKGVGRFAVATLEEGRRLREGGIKGEVLLLGSLHPLEAEEALRLGLVPTLSNLEAAEALSQRARALGLVPRAHLKVDTGMNRVGFPSEEAVSALRAVEALGVRVEGVYTHLATAGEDAAFVETQRRRFQEVRRALGEGYFYHLENSLGLLRHGATAGVRVGLALYGLVPGFGLRPILRILARPTLVKRLKAGDRVGYGGVYVARGGEWLATLPVGYADGLPWGAVRFVKGPDGRLLEVAGRISMDQTTVLLPGPVGLEAVFEVLSADFGPTGLLAWAEARGTLPYEVAVHLSRRLPRRYLE | soluble
MAFNSALFDGMVIFSEVVTSGSFTQAALNSGHSTSYISKEIGKLEERLGVRLLHRTTRTLRLTPEGELYFQQCQQLIEDAQMAENSITGQQEKPKGRLKVSCPVGFALSRLRPILGKFTDLYPDIILELDLNDKKIDIVAEGFDMAIRASHQLEDSSLISRRFLRSKAITIASPGYLKKHGAPLYPHDLSSHKTIGYAYVKQGAIWDFFDKNKQPFSVQLNSQVITNNSFMALSLCLAEQGITRIPHFHLTDELETGKLVELFADYPKLTIDIFMVYPSRKHMSAKVRCFMDFISEHLGD | not soluble
NTLTSQIEQLQSLAHELLYLGVDGAPIYTDHFRQLNKEVLEQSDALYPQRGATPEEEANICLALLMGYNATIYNQGDKEEKKQVVLNRCWDVLDQLPATLLKCQLLTYCYGEVFE | not soluble
MRIHRRIKIKQKSVRIFIFDTKHRINDTKRQEDDEPHGLSALHFASRRPTCCACWMRRKKESTTTKVCVQDDCTTCSCTSASRCSRCSPCCSGCCSCTS | not soluble
MGSDKIHHHHHHLTQLAQCSTSSISQSSIYLPYRDGQLHLRQLLPSAPDFSKTPILMLHGAMSNGRVFYSQSGRGLGCFLAKAGFVVYVLDTAGRGLSLPKIDRDSTLGQGEVIREQLPLVQQTILDLHQKACQEQTAQYDRKAVAPSQVHWCAHSWGGVLMASSLARYPELQQSVRSLLTFGSKRTIRVKSFKKWLMVDVFWNRLAPGLAMGQGYLAADKLRIGMDNESRASLVQSIDWVQGDWIDHDDGFDYAKAAKRADWPPAWFISGLNDTVLGHPEDVADMVEECGFKRVKSTLLSKENGFKHDYGHADMLTHLDATSDHFPKISDWYLSFDLAVLNG | not soluble
GMIRVMATGVFDILHLGHIHYLKESKKLGDELVVVVARDSTARNNGKIPIFDENSRLALISELKVVDRAILGHEGDMMKTVIEVKPDIITLGYDQKFDEAELQSKINKLGITVKIVRISKYDGQLNSSSSVRKKIMELIGERY | soluble
MAIIPKNYARLESGYREKALKIYPWVCGRCSREFVYSNLRELTVHHIDHDHTNNPEDGSNWELLCLYCHDHEHSKYTEADQYGTTVIAGEDAQKDVGEAKYNPFADLKAMMNKKK | not soluble
MSLAIKMLAIDLDGTLLTDSKTILPGTYKALQEAKAAGIKIVLTSGRPLSGIKGYAEELGLSGSEEYAILFNGAVVQNLDGRVLISHDLDFGDFNTLLHMQRLSDVNLDFETPDRFYTLDKRISIRLQIDGAETKNQLWIQDRSDFKKDFTFAKAVYQCDDPDQVDRLWNRLPDWFFQSYAVVRSWPEVVEVGSLAASKGYAVSELASRLGLSNSEVMIFGDQGNDRSMFEIPDFKRVAMGNAIDEIKDLADYVTDTNERDGIAKALRKLVLEGHHHHHH | soluble
MGSDKIHHHHHHMLNSQSKLDQEVIEGIHRIRENGVLPFIATGRGHFELDEIMSLTGISGAVAMNGQYIVLDGETIYKEEIPTSSVEKLLEAASPHSEALSFYDSQGYWVSELTDLAKTAYAYTHMPMPQADARRYLSQEVNMLLVLTNQLSQVDYYKERVPELNFFMNSPSSIDVTNSTTNKGTGINHVKEVLNFTGQTFAFGDGRNDLDLFKAADHRTAMGNAVPELKELADFISTENTNHGIINAFNHWGIM | not soluble
MSLKFLLTTAQGIEDIAKREVSLLLKKLGISFQIEEKPLGIEGRLLLEAEKAYYVDEKGRKRELSISTYLNENSRLLHRVIIEIASEKFNGIEKDESEEALKRIKDFVSSLPVEQFVKVSETFAVRSFRKGDHNITSIDIARTVGEAIFERLSRFGTPLVNLDHPAVIFRAELIKDVFFLGIDTTGDSSLHKRPWRVYDHPAHLKASIANAMIELAELDGGSVLDPMCGSGTILIELALRRYSGEIIGIEKYRKHLIGAEMNALAAGVLDKIKFIQGDATQLSQYVDSVDFAISNLPYGLKIGKKSMIPDLYMKFFNELAKVLEKRGVFITTEKKAIEEAIAENGFEIIHHRVIGHGGLMVHLYVVKGIITITTDPNSSSVDKLAAALEHHHHHH | soluble
MTEAKIVDISSKDIVLREAVVEGYIKLRKETIEKIKNKEVEKGDVITVAKTAGILAAKKTPELIPMCHPIPLEFVDVEIKIEEEGLRVISTVKAHYKTGVEMEALTATSVALLTIWDMVKKYEKDENGQYPYTEIKSIRVINKIKTYDDMK | soluble
SPYVFSFKMPQEQGQMFQYYPVYMVLPWEQPQQTVPRSPQQTRQQQYEEQIPFYAQFGYIPQLAEPAISGGQQQLAFDPQLGTAPEIAVMSTGEEIPYLQKEAINFRHDSAGVFMPSTSPKPSTTNVFTSAVDQTITPELPEEKDKTDSLREP | soluble
GAMGSPKEHIDLYQQIKWNGWGDTRKFLHQLKPSGTIAMTTPEVSSVPLPSLRGFIKKELTLPGEEDKPFVLDETPALQIENIHVDPPKQYPEFVRELKAFFLPDQLKDDKLARITHTFGKSLRDLIRVRIGQVKNAPDLIVLPHSHEEVERLVQLAHKYNVVIIPMGGGSNIVGAIEPVSNERFTVSIDMRRMNKVLWVDRREMTACIQVGIMGPELEKQLHKQGVSLGHDPDSFEFSTLGGWLATCSSGHQSDKYGDIEDMAVSFRTVTPTGTLELRNGARSGAGINYKHIILGSEGTLGIITEAVMKVHAVPQAVEYYGFLFPTFAHAVSALQQIRSSEVIPTMIRVYDPEETQLSFAWKPSKGAVSEFTSAMVKKYLHYIRSFDFKNVCLSIIGFEGPKKVVDFHRTSVFDILSKNAAFGLGSAPGKTWAEKRYDLPYIRDFLLDHNMWVDVAETTVSYANLQTLWKDAKQTFVKHFKDQGIPAWICAHISHTYTNGVCLYFIFASKQNENKDMAQYIEAKKLMTDIIFKYGGSLSHHHGVGYEHVPWMTRYATRGWINVYRSLKETIDPKDICNPRKLI | soluble
MLDNVLRIATRQSPLALWQAHYVKDKLMASHPGLVVELVPMVTRGDVILDTPLAKVGGKGLFVKELEVALLENRADIAVHSMKDVPVEFPQGLGLVTICEREDPRDAFVSNNYDSLDALPAGSIVGTSSLRRQCQLAERRPDLIIRSLRGNVGTRLSKLDNGEYDAIILAVAGLKRLGLESRIRAALPPEISLPAVGQGAVGIECRLDDSRTRELLAALNHHETALRVTAERAMNTRLEGGCQVPIGSYAELIDGEIWLRALVGAPDGSQIIRGERRGAPQDAEQMGISLAEELLNNGAREILAEVYNGDAPA | soluble
MELRVAGFLDNSMVNGEGLRSVLFLSGCRRRCPGCQNTDMQDFKYGESVSAEEIFNRIKSNVPIIKGVTFSGGDPLEQAEGLINISKEIKKLGLNIWCYTGYTYEEILKEKDSNKLELLKYIDVLVDGEFKAELTENAPKYAGSSNQRIIRLKLEHHHHHH | not soluble
MAHHHHHHMTTLTHSRPRPLHLPLSPPHTRKNDGAAPAPAHTHPSHFLSVAITVTHTDFVTGTIMKSFFSNITSKLKTRRKPLAPCDCSDFIEAAPAQPSLTHLRGVVAARHFHGAPPPASDVENARRDFVVRSTVFDLQHRCGAGGRCTCAGAPACRFPQCFTMRPVTKGAEVLAERQVYEVEDAPTPEIRALVALAAEEKLEEVVKGIQHTVDAHLKAAARGRGLEARFIIDGSDGHEFTPATPKTGTGSIHAGANPLREDEDLREEITSLYLWRAALLVNLRRDEQAVSSLLNLAFAVEQKDRTRLYGAAAAWAVLNDMEIIYYRSLVKSCKPFDQAVHFATERPLLLARVFEATRGDDYHTDYCTHVVFSKEVTATVTRAQTAQMHGDFTEDPMRSLCLPLTMPYYRFRVDEEFWKRFYALLCMPPVPPPTQEEAKAQAIDPAAELGLTPNYILDAVGRSMMLHHLVTFADVRDKEIDTGVVVDRVKEMKLLDLQPHPSDYTPVLTTSEMHVAVTRMKELLVVVRSFEAKEQERLSGAAAAQRLQRAQSGNDAANPSAAPPAPSPIEK | not soluble
MSLLIRELETNDLDNFPEIDDSFIVNARLMLSLSKVNRRIEYTVEDVPSYEKSYLQNDNEELVYNEYINKPNQIIYIALLHNQIIGFIVLKKNWNNYAYIEDITVDKKYRTLGVGKRLIAQAKQWAKEGNMPGIMLETQNNNVAACKFYEKCGFVIGGFDFLVYKGLNMTSDEVAIYWYLHFDS | not soluble
MGSDKIHHHHHHMLEQTLLDIALDLSQSLPKKALYQRFMTAVNQVMPCDAVALLEYQGHELVPVAVDGLLPEVLGMGFSPEDHPRLQAIMASKQPIRFNADSELADPYDGYLVIDPKRVLDVHACIGCSLFVEGRLVGVLTLDALNVGAFDAIDDITIATLAALAAATIRNVNLLNQLDRQQYKLDDNDSVFKQKPLKKSDFIGETPCMQALKDDIRIVANSELSVIIGGETGVGKELVARSLHAQSKRRAQALVQVNCAALPDTLAESELFGHSKGAFTGAAKDRMGKFELAHQGTLFLDEVGELSLELQAKLLRVIQEGEIQRIGLDRNIHVDVRIIAASNRNLLQRVKEGLFREDLYHRLCVYPLNVPPLRERQDDIPLLCGNILTNLKHKIGLSSAKTVRLTQAAMQKLQGYPWPGNVRELQHVLMRAALKASAEAKGITVIQLHHLTFACEPMSQGLTELTAFNSNSPDSNPSTSDETFAAANREEKVEPPVISRSFNDRVADFQRQVIRQSLDDNSQVWAKAARQLQLDRGNLHRQAKRLGLIP | not soluble
